Assay results: patent US20080207517A1 (INSTITUT PASTEUR, published 2008)
* marks the point of attachment. BODIPYFLEthylmaleimide = Cc1cc(C)n2c1C=C1C=CC(CCC(=O)NCCN3C(=O)CC(*)C3=O)=[N+]1[B-]2(F)F

T1: CC2 (WT) (murine, N-terminal acetyl group; C-terminal amide)
T1 construct: Forms a trimer at 10 uM in gel filtration; also called CC2 peptide; CC2 wild type
T1 peptide: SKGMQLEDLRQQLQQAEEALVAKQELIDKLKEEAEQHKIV

B1: CC2 (Mu) (peptide)
peptide: Ac-SKGMQLEDLRQQGQQAEEAGVAKQELGDKLKEEAEQHKIV-NH2
notes: As for CC2 (WT), the printed theoretical mass (3987.43 Da) fits residues 6-40 only; also called CC2 mutant
B2: BODIPY-Ant-LZ (Mu) (peptide)
peptide: Ac-C(BODIPYFLEthylmaleimide)RQIKIWFQNRRMKWKKLKAQADIYKADFQAERHAREKLVEKKEYSQEQLEQSQREFNKL-NH2
notes: Two L to S mutations at d positions; also called BODIPY-Ant LZ mutant
B3: BODIPY-R7-NLM-DR (peptide)
peptide: Ac-C(BODIPYFLEthylmaleimide)RRRRRRRLKAQADIYKARFQAERHAREK-NH2
SMILES: CC[C@H](C)[C@H](NC(=O)[C@H](CC(=O)O)NC(=O)[C@H](C)NC(=O)[C@H](CCC(N)=O)NC(=O)[C@H](C)NC(=O)[C@H](CCCCN)NC(=O)[C@H](CC(C)C)NC(=O)[C@H](CCCNC(=N)N)NC(=O)[C@H](CCCNC(=N)N)NC(=O)[C@H](CCCNC(=N)N)NC(=O)[C@H](CCCNC(=N)N)NC(=O)[C@H](CCCNC(=N)N)NC(=O)[C@H](CCCNC(=N)N)NC(=O)[C@H](CCCNC(=N)N)NC(=O)[C@H](CSC1CC(=O)N(CCNC(=O)CCC2=[N+]3C(=Cc4c(C)cc(C)n4[B-]3(F)F)C=C2)C1=O)NC(C)=O)C(=O)N[C@@H](Cc1ccc(O)cc1)C(=O)N[C@@H](CCCCN)C(=O)N[C@@H](C)C(=O)N[C@@H](CCCNC(=N)N)C(=O)N[C@@H](Cc1ccccc1)C(=O)N[C@@H](CCC(N)=O)C(=O)N[C@@H](C)C(=O)N[C@@H](CCC(=O)O)C(=O)N[C@@H](CCCNC(=N)N)C(=O)N[C@@H](Cc1c[nH]cn1)C(=O)N[C@@H](C)C(=O)N[C@@H](CCCNC(=N)N)C(=O)N[C@@H](CCC(=O)O)C(=O)N[C@@H](CCCCN)C(N)=O
B4: BODIPY-R9-NLM-DR (peptide)
peptide: Ac-C(BODIPYFLEthylmaleimide)RRRRRRRRRLKAQADIYKARFQAERHAREK-NH2
SMILES: CC[C@H](C)[C@H](NC(=O)[C@H](CC(=O)O)NC(=O)[C@H](C)NC(=O)[C@H](CCC(N)=O)NC(=O)[C@H](C)NC(=O)[C@H](CCCCN)NC(=O)[C@H](CC(C)C)NC(=O)[C@H](CCCNC(=N)N)NC(=O)[C@H](CCCNC(=N)N)NC(=O)[C@H](CCCNC(=N)N)NC(=O)[C@H](CCCNC(=N)N)NC(=O)[C@H](CCCNC(=N)N)NC(=O)[C@H](CCCNC(=N)N)NC(=O)[C@H](CCCNC(=N)N)NC(=O)[C@H](CCCNC(=N)N)NC(=O)[C@H](CCCNC(=N)N)NC(=O)[C@H](CSC1CC(=O)N(CCNC(=O)CCC2=[N+]3C(=Cc4c(C)cc(C)n4[B-]3(F)F)C=C2)C1=O)NC(C)=O)C(=O)N[C@@H](Cc1ccc(O)cc1)C(=O)N[C@@H](CCCCN)C(=O)N[C@@H](C)C(=O)N[C@@H](CCCNC(=N)N)C(=O)N[C@@H](Cc1ccccc1)C(=O)N[C@@H](CCC(N)=O)C(=O)N[C@@H](C)C(=O)N[C@@H](CCC(=O)O)C(=O)N[C@@H](CCCNC(=N)N)C(=O)N[C@@H](Cc1c[nH]cn1)C(=O)N[C@@H](C)C(=O)N[C@@H](CCCNC(=N)N)C(=O)N[C@@H](CCC(=O)O)C(=O)N[C@@H](CCCCN)C(N)=O
B5: BODIPY-Ant-NLM-DR (peptide)
peptide: Ac-C(BODIPYFLEthylmaleimide)RQIKIWFQNRRMKWKKLKAQADIYKARFQAERHAREK-NH2
SMILES: CC[C@H](C)[C@H](NC(=O)[C@H](CC(=O)O)NC(=O)[C@H](C)NC(=O)[C@H](CCC(N)=O)NC(=O)[C@H](C)NC(=O)[C@H](CCCCN)NC(=O)[C@H](CC(C)C)NC(=O)[C@H](CCCCN)NC(=O)[C@H](CCCCN)NC(=O)[C@H](Cc1c[nH]c2ccccc12)NC(=O)[C@H](CCCCN)NC(=O)[C@H](CCSC)NC(=O)[C@H](CCCNC(=N)N)NC(=O)[C@H](CCCNC(=N)N)NC(=O)[C@H](CC(N)=O)NC(=O)[C@H](CCC(N)=O)NC(=O)[C@H](Cc1ccccc1)NC(=O)[C@H](Cc1c[nH]c2ccccc12)NC(=O)[C@@H](NC(=O)[C@H](CCCCN)NC(=O)[C@@H](NC(=O)[C@H](CCC(N)=O)NC(=O)[C@H](CCCNC(=N)N)NC(=O)[C@H](CSC1CC(=O)N(CCNC(=O)CCC2=[N+]3C(=Cc4c(C)cc(C)n4[B-]3(F)F)C=C2)C1=O)NC(C)=O)[C@@H](C)CC)[C@@H](C)CC)C(=O)N[C@@H](Cc1ccc(O)cc1)C(=O)N[C@@H](CCCCN)C(=O)N[C@@H](C)C(=O)N[C@@H](CCCNC(=N)N)C(=O)N[C@@H](Cc1ccccc1)C(=O)N[C@@H](CCC(N)=O)C(=O)N[C@@H](C)C(=O)N[C@@H](CCC(=O)O)C(=O)N[C@@H](CCCNC(=N)N)C(=O)N[C@@H](Cc1c[nH]cn1)C(=O)N[C@@H](C)C(=O)N[C@@H](CCCNC(=N)N)C(=O)N[C@@H](CCC(=O)O)C(=O)N[C@@H](CCCCN)C(N)=O
B6: BODIPY-Ant-LZ (WT) (peptide)
peptide: Ac-C(BODIPYFLEthylmaleimide)RQIKIWFQNRRMKWKKLKAQADIYKADFQAERHAREKLVEKKEYLQEQLEQLQREFNKL-NH2
notes: Synthetic peptide; elutes as a monomer in gel filtration at 10 uM
B7: BODIPY-Ant-CC2 (WT) (peptide)
peptide: Ac-C(BODIPYFLEthylmaleimide)RQIKIWFQNRRMKWKKSKGMQLEDLRQQLQQAEEALVAKQELIDKLKEEAEQHKIV-NH2
notes: Synthetic peptide; elutes as a monomer in gel filtration at 10 uM; also called Ant-CC2 BODIPY peptide
B8: BODIPY-TAT-NLM-DR (peptide)
peptide: Ac-C(BODIPYFLEthylmaleimide)YGRKKRRQRRRLKAQADIYKARFQAERHAREK-NH2
SMILES: CC[C@H](C)[C@H](NC(=O)[C@H](CC(=O)O)NC(=O)[C@H](C)NC(=O)[C@H](CCC(N)=O)NC(=O)[C@H](C)NC(=O)[C@H](CCCCN)NC(=O)[C@H](CC(C)C)NC(=O)[C@H](CCCNC(=N)N)NC(=O)[C@H](CCCNC(=N)N)NC(=O)[C@H](CCCNC(=N)N)NC(=O)[C@H](CCC(N)=O)NC(=O)[C@H](CCCNC(=N)N)NC(=O)[C@H](CCCNC(=N)N)NC(=O)[C@H](CCCCN)NC(=O)[C@H](CCCCN)NC(=O)[C@H](CCCNC(=N)N)NC(=O)CNC(=O)[C@H](Cc1ccc(O)cc1)NC(=O)[C@H](CSC1CC(=O)N(CCNC(=O)CCC2=[N+]3C(=Cc4c(C)cc(C)n4[B-]3(F)F)C=C2)C1=O)NC(C)=O)C(=O)N[C@@H](Cc1ccc(O)cc1)C(=O)N[C@@H](CCCCN)C(=O)N[C@@H](C)C(=O)N[C@@H](CCCNC(=N)N)C(=O)N[C@@H](Cc1ccccc1)C(=O)N[C@@H](CCC(N)=O)C(=O)N[C@@H](C)C(=O)N[C@@H](CCC(=O)O)C(=O)N[C@@H](CCCNC(=N)N)C(=O)N[C@@H](Cc1c[nH]cn1)C(=O)N[C@@H](C)C(=O)N[C@@H](CCCNC(=N)N)C(=O)N[C@@H](CCC(=O)O)C(=O)N[C@@H](CCCCN)C(N)=O
B9: BODIPY-Ant-CC2 (Mu) (peptide)
peptide: Ac-C(BODIPYFLEthylmaleimide)RQIKIWFQNRRMKWKKSKGMQLEDLRQQGQQAEEAGVAKQELGDKLKEEAEQHKIV-NH2
notes: also called CC2 variant

Legend:
[1] = target: the molecule itself; assay: gel filtration (Superdex 75), self-association
Method: The oligomeric states of peptides were determined by filtration as described in Traincard et al., 2003. In brief, 500 μl samples were loaded on a SUPERDEX™ 75 HR 10/30 column equilibrated in 50 mM Tris-HCl pH 8.0 containing 200 mM NaCl and 0.1 mM DDM, at a constant flow rate of 0.4 ml/min. The presence of the DDM detergent was added in the equilibrium buffer to minimize the adsorption in the column and to increase the peptide recovery. The column was calibrated in the same equilibrium buffer with blue dextran 2000 (void volume), dithioerythritol (total volume), bovine serum albumin (67 kDa, Rs=35.2 Å), ovalbumine (43 kDa, Rs=27.5 Å), chymotrypsinogen A (25 kDa, Rs=21.1 Å), ribonuclease A (13.7 kDa, Rs=16.4 Å), cytochrome C (12.4 kDa, Rs=17.7 Å) and aprotinin (6.5 KDa, Rs=13.5 Å).

[2] = target: T2, NEMO (NF-kB essential modulator), murine (murine, UniProt O88522 1-412); assay: cell-based or functional assay
T2 sequence (O88522 other isoform, or with tags, fused parts or gaps): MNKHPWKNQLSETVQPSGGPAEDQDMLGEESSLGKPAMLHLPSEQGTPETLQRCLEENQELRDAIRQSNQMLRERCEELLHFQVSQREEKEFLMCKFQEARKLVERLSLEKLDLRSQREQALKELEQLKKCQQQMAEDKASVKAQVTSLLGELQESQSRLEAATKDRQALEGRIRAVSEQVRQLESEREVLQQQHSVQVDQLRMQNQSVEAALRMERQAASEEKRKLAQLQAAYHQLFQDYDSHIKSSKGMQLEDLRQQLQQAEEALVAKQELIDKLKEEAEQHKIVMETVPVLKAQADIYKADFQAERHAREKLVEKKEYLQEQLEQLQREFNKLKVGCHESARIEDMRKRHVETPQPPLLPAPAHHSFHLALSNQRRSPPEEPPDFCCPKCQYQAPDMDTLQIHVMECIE

[3] = target: T2, NEMO (NF-kB essential modulator), murine; assay: cell-based or functional assay; remark: listed apart in the source
CC2 (WT) [4] = target: T1, CC2 (WT); assay: fluorescence anisotropy, 1 µM BODIPY-Ant-CC2 titrated with CC2
Method: (§1) (A) Direct titration of BODIPY-Ant-CC2 (1 μM) with CC2 by fluorescence anitropy. The concentration of CC2 was determined by amino acid analysis. Anisotropy values of BODIPY-Ant-CC2 in milliunits (mA) were plotted against an increasing concentration of the CC2 peptide. […] The two dashed lines represent a stoichiometric titration and intersect at an CC2 concentration of […]. Given the 1 μM concentration of the BODIPY-Ant-CC2, this gives a complex stoechiometrie of 0.8. (B) Direct titration of BODIPY-Ant-LZ (0.1 μM) with CC2 by fluorescence anitropy. The anisotropy values of the BODIPY-Ant-LZ alone (white bar) or in the presence of the CC2 peptide (30 μM, grey bar; 100 μM, black bar) are given in milliunits (mA).
(§2) Anisotropy measurements were performed with a PTI […]™ fluorometer equipped with polarizers for the excitation and emission beams. This instrument uses a PMT in the L-configuration. […] Steady-state fluorescence anisotropy was expressed as millianisotropy (mA) and was calculated according to the equations: (1) A=(IVV−GIVH)/(IVV+2GIVH); (2) G=IHV/IHH.; where A is anisotropy, G is a correction factor for wavelength-dependent distortion and I is the fluorescence intensity component (subscript referring to the vertical and horizontal positioning at the excitation and emission polarizers, respectively). […]

CC2 (WT) [5] = target: T1, CC2 (WT); assay: fluorescence anisotropy, 1 µM BODIPY-Ant-CC2 titrated with 1-125 µM CC2
Method: as §1, §2

| Binder | binding result [1] | IC 50 (inhibition of NF-κB activation pathway) [2] [nM] | also measured |
| --- | --- | --- | --- |
| B1 | no binding (tested: 10 µM) |  |  |
| B2 | no binding (tested: 10 µM) |  |  |
| B3 |  | 900 |  |
| B4 |  | 900 |  |
| B5 |  | 1100 |  |
| B6 | no binding (tested: 10 µM) |  | IC50 of inhibition of LPS-induced NF-κB activation (β-galactosidase reporter, 70Z3-C3 cells) [3]: 3000 nM; fold reduction of LPS-induced NF-κB activation at 10 µM peptide (stringent β-galactosidase assay, 70Z3-C3 cells) [3]: 5.8 fold |
| B7 | no binding (tested: 10 µM) |  | stoichiometry (CC2 (WT) [4]): 0.8; IC50 of inhibition of LPS-induced NF-κB activation (β-galactosidase reporter, 70Z3-C3 cells) [3]: 22000 nM; fold reduction of LPS-induced NF-κB activation at 10 µM peptide (stringent β-galactosidase assay, 70Z3-C3 cells) [3]: 1.7 fold; Kd (CC2 (WT) [5]): 15200 nM |
| B8 |  | 1000 |  |
| B9 | no binding (tested: 10 µM) |  |  |
